The record followed here is publication PMC11742489.

Several values for one entry are separate records, joined by “and”; a condition that tells them apart may be missing. Equal values may be shown once.

This test has as its target Ca2+/CaM. Briefly: ITC; Cav1.2-NSCaTE peptide (20-fold molar excess) injected into CaM (~50 uM); 50 mM HEPES, 100 mM KCl, 2 mM MgCl2, pH 7.5, 5 mM CaCl2 (Ca2+-saturating); 20°C by the legend, 25°C by the methods; one-site binding model. A general note: In ITC the heat of successive injections is recorded.

Turning to Cav1.2-NSCaTE(51-67) peptide, the stoichiometry N is 2 and 1.7.

As usually defined, the stoichiometry N is a count of units in the complex or per binding partner.
